Where two headings read alike, the source gives them in different places.
Legend:
[1] = target: human EWI2 wild-type with palmitate-free cytoplasmic cysteines (after hydroxylamine or 2BP) (human) (UniProt Q969P0); assay: cross-linking
[2] = target: human EWI2 wild-type with palmitate-free cytoplasmic cysteines (after hydroxylamine or 2BP) (human) (UniProt Q969P0); assay: cross-linking; remark: listed apart in the source

percent of EWI2 molecules dimerized [1]: 78% | stoichiometry N [1]: 2 | percent of EWI2 molecules dimerized [2]: 11% | stoichiometry N [2]: 2
Substance: human EWI2 wild-type with palmitate-free cytoplasmic cysteines (after hydroxylamine or 2BP) (from UniProt Q969P0 28-613) (natural protein)

Source: publication PMC4141501
